Assay results: IntAct's records for PubMed 24076655

B1: E3 ubiquitin-protein ligase ARIH2 (Homo sapiens), O95376 (parent)
chain: MSVDMNSQGSDSNEEDYDPNCEEEEEEEEDDPGDIEDYYVGVASDVEQQGADAFDPEEYQFTCLTYKESEGALNEHMTSLASVLKVSHSVAKLILVNFHWQVSEILDRYKSNSAQLLVEARVQPNPSKHVPTSHPPHHCAVCMQFVRKENLLSLACQHQFCRSCWEQHCSVLVKDGVGVGVSCMAQDCPLRTPEDFVFPLLPNEELREKYRRYLFRDYVESHYQLQLCPGADCPMVIRVQEPRARRVQCNRCNEVFCFKCRQMYHAPTDCATIRKWLTKCADDSETANYISAHTKDCPKCNICIEKNGGCNHMQCSKCKHDFCWMCLGDWKTHGSEYYECSRYKENPDIVNQSQQAQAREALKKYLFYFERWENHNKSLQLEAQTYQRIHEKIQERVMNNLGTWIDWQYLQNAAKLLAKCRYTLQYTYPYAYYMESGPRKKLFEYQQAQLEAEIENLSWKVERADSYDRGDLENQMHIAEQRRRTLLKDFHDT

Variants of: B1
Settings: with ub2l3_human UBE2L3, P68036

Variant	effect of a mutation on the interaction
MSVDMNSQGSDSNEEDYDPNCEEEEEEEEDDPGDIEDYYVGVASDVEQQGADAFDPEEYQFTCLTYKESEGALNEHMTSLASVLKVSHSVAKLILVNFHWQVSEILDRYKSNSAQLLVEARVQPNPSKHVPTSHPPHHCAVCMQFVRKENLLSLACQAQFCRSCWEQHCSVLVKDGVGVGVSCMAQDCPLRTPEDFVFPLLPNEELREKYRRYLFRDYVESHYQLQLCPGADCPMVIRVQEPRARRVQCNRCNEVFCFKCRQMYHAPTDCATIRKWLTKCADDSETANYISAHTKDCPKCNICIEKNGGCNHMQCSKCKHDFCWMCLGDWKTHGSEYYECSRYKENPDIVNQSQQAQAREALKKYLFYFERWENHNKSLQLEAQTYQRIHEKIQERVMNNLGTWIDWQYLQNAAKLLAKCRYTLQYTYPYAYYMESGPRKKLFEYQQAQLEAEIENLSWKVERADSYDRGDLENQMHIAEQRRRTLLKDFHDT [H158A]	disrupting interaction

Variants of: B1
Settings: with cul5_human CUL5, Q93034
Chain of cul5_human CUL5, Q93034 (Q93034 whole entry): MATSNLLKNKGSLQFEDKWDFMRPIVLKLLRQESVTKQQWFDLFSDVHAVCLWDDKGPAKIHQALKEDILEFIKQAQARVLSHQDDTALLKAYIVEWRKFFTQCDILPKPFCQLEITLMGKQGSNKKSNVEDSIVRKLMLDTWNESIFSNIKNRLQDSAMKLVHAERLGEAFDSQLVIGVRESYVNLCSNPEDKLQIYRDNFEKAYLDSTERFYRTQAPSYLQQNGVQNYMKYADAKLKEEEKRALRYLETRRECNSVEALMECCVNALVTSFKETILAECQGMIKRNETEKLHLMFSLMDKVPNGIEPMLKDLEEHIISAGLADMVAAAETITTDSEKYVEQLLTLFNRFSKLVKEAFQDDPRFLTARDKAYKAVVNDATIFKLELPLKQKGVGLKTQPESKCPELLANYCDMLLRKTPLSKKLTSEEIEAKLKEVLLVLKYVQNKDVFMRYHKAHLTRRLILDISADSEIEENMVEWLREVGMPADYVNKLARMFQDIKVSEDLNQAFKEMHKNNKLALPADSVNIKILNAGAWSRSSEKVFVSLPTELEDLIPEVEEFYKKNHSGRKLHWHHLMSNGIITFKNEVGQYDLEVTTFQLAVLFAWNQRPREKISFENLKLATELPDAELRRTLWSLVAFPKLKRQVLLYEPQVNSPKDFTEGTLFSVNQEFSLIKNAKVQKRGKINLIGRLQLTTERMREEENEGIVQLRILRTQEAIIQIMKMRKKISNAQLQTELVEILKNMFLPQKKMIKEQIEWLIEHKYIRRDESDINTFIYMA

Variant	effect of a mutation on the interaction
MSVDMNSQGSDSNEEDYDPNCEEEEEEEEDDPGDIEDYYVGVASDVEQQGADAFDPEEYQFTCLTYKESEGALNEHMTSLASVLKVSHSVAKLILVNFHWQVSEILDRYKSNSAQLLVEARVQPNPSKHVPTSHPPHHCAVCMQFVRKENLLSLACQHQFCRSCWEQHCSVLVKDGVGVGVSCMAQDCPLRTPEDFVFPLLPNEELREKYRRYLFRDYVESHYQLQLCPGADCPMVIRVQEPRARRVQCNRCNEVFCFKCRQMYHAPTDCATIRKWLTKCADDSETANYISAHTKDCPKANICIEKNGGCNHMQCSKCKHDFCWMCLGDWKTHGSEYYECSRYKENPDIVNQSQQAQAREALKKYLFYFERWENHNKSLQLEAQTYQRIHEKIQERVMNNLGTWIDWQYLQNAAKLLAKCRYTLQYTYPYAYYMESGPRKKLFEYQQAQLEAEIENLSWKVERADSYDRGDLENQMHIAEQRRRTLLKDFHDT [C300A]	increasing interaction

Variants of: B1
Settings: with cul5_human CUL5, Q93034
Remark: another data set of the same source

Variant	effect of a mutation on the interaction
MSVDMNSQGSDSNEEDYDPNCEEEEEEEEDDPGDIEDYYVGVASDVEQQGADAFDPEEYQFTCLTYKESEGALNEHMTSLASVLKVSHSVAKLILVNFHAQVSEILDRYKSNSAQLLVEARVQPNPSKHVPTSHPPHHCAVCMQFVRKENLLSLACQHQFCRSCWEQHCSVLVKDGVGVGVSCMAQDCPLRTPEDFVFPLLPNEELREKYRRYLFRDYVESHYQLQLCPGADCPMVIRVQEPRARRVQCNRCNEVFCFKCRQMYHAPTDCATIRKWLTKCADDSETANYISAHTKDCPKCNICIEKNGGCNHMQCSKCKHDFCWMCLGDWKTHGSEYYECSRYKENPDIVNQSQQAQAREALKKYLFYFERWENHNKSLQLEAQTYQRIHEKIQERVMNNLGTWIDWQYLQNAAKLLAKCRYTLQYTYPYAYYMESGPRKKLFEYQQAQLEAEIENLSWKVERADSYDRGDLENQMHIAEQRRRTLLKDFHDT [W100A]	decreasing interaction

Variants of: B1
Settings: with cul5_human CUL5, Q93034
Remark: another data set of the same source

Variant	effect of a mutation on the interaction
MSVDMNSQGSDSNEEDYDPNCEEEEEEEEDDPGDIEDYYVGVASDVEQQGADAFDPEEYQFTCLTYKESEGALNEHMTSLASVAKASHSVAKLILVNFHAQVSEILDRYKSNSAQLLVEARVQPNPSKHVPTSHPPHHCAVCMQFVRKENLLSLACQHQFCRSCWEQHCSVLVKDGVGVGVSCMAQDCPLRTPEDFVFPLLPNEELREKYRRYLFRDYVESHYQLQLCPGADCPMVIRVQEPRARRVQCNRCNEVFCFKCRQMYHAPTDCATIRKWLTKCADDSETANYISAHTKDCPKCNICIEKNGGCNHMQCSKCKHDFCWMCLGDWKTHGSEYYECSRYKENPDIVNQSQQAQAREALKKYLFYFERWENHNKSLQLEAQTYQRIHEKIQERVMNNLGTWIDWQYLQNAAKLLAKCRYTLQYTYPYAYYMESGPRKKLFEYQQAQLEAEIENLSWKVERADSYDRGDLENQMHIAEQRRRTLLKDFHDT [L84A;V86A;W100A]	decreasing interaction

Variants of: B1
Settings: with cul5_human CUL5, Q93034
Remark: another data set of the same source

Variant	effect of a mutation on the interaction
MSVDMNSQGSDSNEEDYDPNCEEEEEEEEDDPGDIEDYYVGVASDVEQQGADAFDPEEYQFTCLTYKESEGALNEHMTSLASVLKVSHSVAKLILVNFHWQVSEILDRYKSNSAQLLVEARVQPNPSKHVPTSHPPHHCAVCMQFVRKENLLSLACQHQFCRSCWEQHCSVLVKDGVGVGVSCMAQDCPLRTPEDFVFPLLPNEELREKYRRYLFRDYVESHYQLQLCPGADCPMVIRVQEPRARRVQCNRCNEVFCFKCRQMYHAPTDCATIRKWLTKCADDSETANYISAHTKDCPKCNICIEKNGGCNHMQCSKAKHDFCWMCLGDWKTHGSEYYECSRYKENPDIVNQSQQAQAREALKKYLFYFERWENHNKSLQLEAQTYQRIHEKIQERVMNNLGTWIDWQYLQNAAKLLAKCRYTLQYTYPYAYYMESGPRKKLFEYQQAQLEAEIENLSWKVERADSYDRGDLENQMHIAEQRRRTLLKDFHDT [C318A]	increasing interaction

Variants of: B1
Settings: with cul5_human CUL5, Q93034
Remark: another data set of the same source

Variant	effect of a mutation on the interaction
MSVDMNSQGSDSNEEDYDPNCEEEEEEEEDDPGDIEDYYVGVASDVEQQGADAFDPEEYQFTCLTYKESEGALNEHMTSLASVLKVSHSVAKLILVNFHWQVSEILDRYKSNSAQLLVEARVQPNPSKHVPTSHPPHHCAVCMQFVRKENLLSLACQHQFCRSCWEQHCSVLVKDGVGVGVSCMAQDCPLRTPEDFVFPLLPNEELREKYRRYLFRDYVESHYQLQLCPGADCPMVIRVQEPRARRVQCNRCNEVFCFKCRQMYHAPTDCATIRKWLTKCADDSETANYISAHTKDCPKCNICIEKNGGSNHMQCSKCKHDFCWMCLGDWKTHGSEYYECSRYKENPDIVNQSQQAQAREALKKYLFYFERWENHNKSLQLEAQTYQRIHEKIQERVMNNLGTWIDWQYLQNAAKLLAKCRYTLQYTYPYAYYMESGPRKKLFEYQQAQLEAEIENLSWKVERADSYDRGDLENQMHIAEQRRRTLLKDFHDT [C310S]	increasing interaction

Variants of: B1
Settings: with cul5_human CUL5, Q93034
Remark: another data set of the same source

Variant	effect of a mutation on the interaction
MSVDMNSQGSDSNEEDYDPNCEEEEEEEEDDPGDIEDYYVGVASDVEQQGADAFDPEEYQFTCLTYKESEGALNEHMTSLASVLKVSHSVAKLILVNFHWQVSEILDRYKSNSAQLLVEARVQPNPSKHVPTSHPPHHCAVCMQFVRKENLLSLACQHQFCRSCWEQHCSVLVKDGVGVGVSCMAQDCPLRTPEDFVFPLLPNEELREKYRRYLFRDYVESHYQLQLCPGADCPMVIRVQEPRARRVQCNRCNEVFCFKCRQMYHAPTDCATIRKWLTKCADDSETANYISAHTKDCPKCNICIEKNGGANHMQCSKCKHDFCWMCLGDWKTHGSEYYECSRYKENPDIVNQSQQAQAREALKKYLFYFERWENHNKSLQLEAQTYQRIHEKIQERVMNNLGTWIDWQYLQNAAKLLAKCRYTLQYTYPYAYYMESGPRKKLFEYQQAQLEAEIENLSWKVERADSYDRGDLENQMHIAEQRRRTLLKDFHDT [C310A]	increasing interaction
